Test system: BMNCs
Experiment: Histochemistry (Wright-Giemsa) and immunocytochemistry for erythroid cells (TER-119)
Format: cell-based, mouse
Details: 7 days culture, Wright-Giemsa staining
Description: In order to investigate whether QGR can stimulate the differentiation of hematopoietic stem cells into erythroid cells, the morphology of cells was observed and immunocytochemistry against TER-119, the marker of erythroid progenitors, was carried out. BMNCs were harvested 7 days after incubation with either rEpo (3 units/ml) or QGR (100 or 200 μM/ml) washed with PBS, re-suspended at a concentration of 2×10^5 cells/ml in PBS and subjected (100 μl/slide) to cytospin for 5 min at 1,000 rpm (Cytospin3; Shandon, ThermoElectron, Waltham, Mass., USA). All slides were fixed using cold methanol. Wright-Giemsa stain was performed for morphologic analysis. Immunocytochemistry against TER-119 was carried out for cellular lineage with 100-fold dilution according to the manufacturer's instruction using avidin biotinylated enzyme complex kit (VECTASTAIN, Vector Laboratories and Burlingame, Calif., USA).

B1: positive control group: mouse recombinant Epo (rEpo, 3 units/ml), positive control in the erythroid differentiation tests (protein, UniProt P07321 27-192, looked up)
Erythropoietin: APPRLICDSRVLERYILEAKEAENVTMGCAEGPRLSENITVPDTKVNFYAWKRMEVEEQAIEVWQGLSLLSEAILQAQALLANSSQPPETLQLHIDKAISGLRSLTSLLRVLGAQKELMSPPDTTPPAPLRTLTVDTFCKLFRVYANFLRGKLKLYTGEVCRRGDR
- number of enucleated erythroid cells: increased
